Experiments:
[1] = tested on: Intestinal epithelial cells of the Caco-2 line; test: Iron fixation at the cellular level over 16 hours of culture (Example 1, FIG. 1); assay type: cell-based, human; conditions: Caco-2 cells, no L-arginine
Method: Native bovine Lf was treated at pH 1 so as to substitute the unlabeled iron that it contained in the natural state with ^59Fe labeled iron.
The Lf-^59Fe was then purified in order to remove the nonfixed labeled iron, by gel filtration on a column of SEPHADEX® G-75.
(§1) Intestinal epithelial cells of the Caco-2 line derived from a colon cancer were incubated in a proportion of 2×10^6 cells per ml in an RPMI 1640 medium buffered at pH 7.4, in the presence of 25 mmolar of Hepes, containing 15% (v/v) of fetal calf serum, 2 mmol/l of L-glutamine and 1% (v/v) of a solution of streptomycin-penicillin, sold by the company Gibco.
(§2) Iron fixation at the cellular level was then initiated by adding Lf-^59Fe and/or labeled iron and/or L-arginine.
(§3) One of the cell culture tubes received none of these three constituents, so as to act as a control.
The distribution of the constituents, and also the concentrations at which they were used, appear in Table I below:
The cells were then incubated for a period of 16 hours in Eppendorf tubes kept stirring for the final 2 hours of the culture period. Throughout the incubation period, the amount of cellular iron was measured by centrifugation pellet of the cells a first time after 30 minutes (t=0.5), then after one hour (t=1), and then every hour (t=2 to t=16), using a device for measuring the radioactivity.

[2] = tested on: Intestinal epithelial cells of the Caco-2 line; test: Degree of iron fixation at the cellular level as a function of concentrations (Example 3); assay type: cell-based, human; conditions: Caco-2 cells, after 72 hours of incubation; tube contents per Table III (mg/ml); Control = 1
Method: as §1
Twelve tubes of epithelial cell cultures were prepared according to the conditions described above in Example 1.
as §2, §3
The distribution of the constituents, and also the concentrations at which they were used, appear in Table III below:
The degree of cellular fixation of iron was measured after 72 hours of incubation using a device for measuring the radioactivity.

B1: Lf-^59Fe: Native bovine lactoferrin treated at pH 1 and saturated with ^59Fe labeled iron (85% to 100% saturation) (protein, UniProt P24627 20-708, looked up)
Lactotransferrin: APRKNVRWCTISQPEWFKCRRWQWRMKKLGAPSITCVRRAFALECIRAIAEKKADAVTLDGGMVFEAGRDPYKLRPVAAEIYGTKESPQTHYYAVAVVKKGSNFQLDQLQGRKSCHTGLGRSAGWIIPMGILRPYLSWTESLEPLQGAVAKFFSASCVPCIDRQAYPNLCQLCKGEGENQCACSSREPYFGYSGAFKCLQDGAGDVAFVKETTVFENLPEKADRDQYELLCLNNSRAPVDAFKECHLAQVPSHAVVARSVDGKEDLIWKLLSKAQEKFGKNKSRSFQLFGSPPGQRDLLFKDSALGFLRIPSKVDSALYLGSRYLTTLKNLRETAEEVKARYTRVVWCAVGPEEQKKCQQWSQQSGQNVTCATASTTDDCIVLVLKGEADALNLDGGYIYTAGKCGLVPVLAENRKSSKHSSLDCVLRPTEGYLAVAVVKKANEGLTWNSLKDKKSCHTAVDRTAGWNIPMGLIVNQTGSCAFDEFFSQSCAPGADPKSRLCALCAGDDQGLDKCVPNSKEKYYGYTGAFRCLAEDVGDVAFVKNDTVWENTNGESTADWAKNLNREDFRLLCLDGTRKPVTEAQSCHLAVAPNHAVVSRSDRAAHVKQVLLHQQALFGKNGKNCPDKFCLFKSETKNLLFNDNTECLAKLGGRPTYEEYLGTEYVTAIANLKKCSTSPLLEACAFLTR
modifications: 59Fe iron-saturated
Persistence of the iron fixed in the cell [1]: only transiently fixed

B2: Cell culture tube 3: Table III tube: Lf-^59Fe 0.01 mg/ml alone (protein, UniProt P24627 20-708, looked up)
Lactotransferrin: B1 Lactotransferrin
modifications: 59Fe iron-saturated
Degree of iron fixation in the cells (cpm ^59Fe) [2]: 1.1 ± 0.1 cpm ^59Fe

B3: Cell culture tube 1: Table III tube: Lf-^59Fe 1 mg/ml alone (protein, UniProt P24627 20-708, looked up)
Lactotransferrin: B1 Lactotransferrin
modifications: 59Fe iron-saturated
Degree of iron fixation in the cells (cpm ^59Fe) [2]: 1.2 ± 0.1 cpm ^59Fe

B4: Cell culture tube 2: Table III tube: Lf-^59Fe 0.1 mg/ml alone (protein, UniProt P24627 20-708, looked up)
Lactotransferrin: B1 Lactotransferrin
modifications: 59Fe iron-saturated
Degree of iron fixation in the cells (cpm ^59Fe) [2]: 1.0 ± 0.2 cpm ^59Fe

Reference: patent US6984624B2, “Composition containing an iron complexing protein and a precursor of nitrogen monoxide metabolism and/or a chemical donor of nitrogen monoxide and uses thereof” (Isocell S.A., priority 2000, dated 2006)
